The data set “SAXS” concerns the molecule itself. In words: SAXS.
In data set [1] the target is MBP-PDZ (PDZ domain of PICK1 fused to MBP) (human, UniProt Q9NRD5 22-105). Kind of data set: ITC.

B1: MBP-PICK1 fusion protein (natural protein, human, UniProt Q9NRD5 1-415, looked up)
chain: MFADLDYDIEEDKLGIPTVPGKVTLQKDAQNLIGISIGGGAQYCPCLYIVQVFDNTPAALDGTVAAGDEITGVNGRSIKGKTKVEVAKMIQEVKGEVTIHYNKLQADPKQGMSLDIVLKKVKHRLVENMSSGTADALGLSRAILCNDGLVKRLEELERTAELYKGMTEHTKNLLRAFYELSQTHRAFGDVFSVIGVREPQPAASEAFVKFADAHRSIEKFGIRLLKTIKPMLTDLNTYLNKAIPDTRLTIKKYLDVKFEYLSYCLKVKEMDDEEYSCIALGEPLYRVSTGNYEYRLILRCRQEARARFSQMRKDVLEKMELLDQKHVQDIVFQLQRLVSTMSKYYNDCYAVLRDADVFPIEVDLAHTTLAYGLNQEEFTDGEEEEEEEDTAAGEPSRDTRGAAGPLDKGGSWCDS
Usually stoichiometry N stands for a count of units in the complex or per binding partner. For the molecule B1, the “stoichiometry N” value in the data set “SAXS” came out at 2.

As a reminder, the Kd is the constant that tells how readily two partners part at equilibrium. Low values mean higher affinity, high ones lower affinity. RHWLKV [DAT C-terminal tail peptide (6 aa)] returned a Kd in data set [1] of approximately 1900 nM.

The values above are taken from paper PMC4454178 (Molecular Biology of the Cell, 2015).
